Test: yeast display, Sf9 membrane polyspecificity reagent, FACS + sequencing; frameworks hold sequencing errors
Method in brief: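 Using colony PCR, genes from sorted yeast display clones were amplified, then sequenced on MiSeq at 2 × 250 and filtered by CDR length. The clones had been stained with 10% biotinylated, detergent-solubilized Sf9 membrane reagent for 1 hour at 4 °C and sorted by FACS into low and high (top ~1%) gates on anti-HA and streptavidin fluorescence. Polyreactivity labels come from the gate of origin.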

Sequence | polyreactivity (PSR sort gate)
QVQLVDSGGGLVQAGGSLRLSCADSGRTFYTNAMGWYRQAPGKERELVAAIDISGSTYYADSVKGRFTISRDNAKNTVYLQMNSLKPEDTAVYYCNVDTVCLGGEKGGYYWGQGSQVTVSS | low polyreactivity
QVQLVESGGGLVQAGGSLRLSCAASGSTFIYYTMGWYRQAPGKERELVAAIPSSGGSTYYADSVKGRFTISRDNAKNTVYLQMNSLKPEDTAVYYCADDGTYIKFAKLYRRYDYWGQGTQVTVSS | low polyreactivity
QEQLQESGGGQVQAGGSLLLSCAASGNIIRYYYMGWSRQAPGKERELVAAITYGTSTNYADSVKGRFTISRDNAKNTVYLQMNSLKPEDTAVYYCAVDVNYGDPLDNWGQGTQVTVSS | high polyreactivity
HVQLGESGGGLVQAGGSLRLSCAASGFIFTAYVMGWYRQAPGKERELVAAISRSGGSTYYADSVKGRFTISRDNAKHTVYLQMNSLKPEDTAVYYCAKLRRDARYDYWGQGTQVTVSS | high polyreactivity
QVQLVESGGGLVQAGGSLRLSCAASGRIFYANAMGWYRQAPGKERELVAAISSGGSTYYADSVKGRFTISRDNAKNTVYLKMYSLKPEDTAVYYCAASTVGQTFSYYVDTYDYWGQGTQVTVSS | low polyreactivity
QVQLVESGGVLVQAGGSLRLTCAASGSILYLNAMGWYRQAPGKERELVAAITWSGGSTSYADSVKGRFTISRDNAKYTVSLQMNSLKPEDTAVYYCASGRRGYGGVYYAGGYWGQGTQVTVSS | low polyreactivity
QVQLVESGGGLVQAGGSLRLSCAASGIIFSLKTMGGYRQAPGKERELVAAISSSGGSTYYADSVKGRFTISRDNAKNCVYVQMNSLKPEDTAVYYCARRYAPNTSLTFYYWGQGTQVTVSS | low polyreactivity
QVQLVESGGGLVQAGGSLRLSCAASGIIFYQYAMGWYRQAHGKERELVAAISSRGGSTYYADSVKGRFTISLDNAKNTVYLLMNSLKPEDTAVYYCAAGSTGSTDGYWGQGTQVTVSS | high polyreactivity
QVQLVESGGGLVQAGGSLRLSCAASGSIFIYYAMGWYRQAPGKERELVAAISWSGGDTYYADSVKGRFTISRDNAKNTVYFHMNILKPEDTAVYYCNADYYPYYPYTAWDTVLTHDEYWGQGTQVTVSS | low polyreactivity
QFQLVESCGGLVPAGGSLRLSCAASGRILSDYAMGWYRQAPGKERELVAVISWDGTNTYYADSVKGRFPISRDNAKNTVYLQMNSLKPEDTAVYYCAATGTSYYSAYDYWGQGTQVTVSS | low polyreactivity
QVQLVESGGGLVQAGGSLRLSCAASGSTFRYNAMGWYRPAPGKERELVAAITSGGGTNYADSVKGRFTISRDNAKNTVYLQMNSLKPEDTAVYYCAAPWGLGSELLKRDYWGQGTQVTVSS | low polyreactivity
QVQLQESVGGLVQAGGSLRLSCAASGYISSWYPMGWYRQAPGKEREFVATIAPVATTYYADSVKGRFTISRDYAKNSVYLQMNSLKPEDTAVYYCAAGPENNDFYSYWGQGTQVTVSS | low polyreactivity
QVQLVESGGGLVQAGGSLRLSCAASGRIFVWNAMGWYRQAPGKERELVAAITSSGGNTYYADSVKGRFTISRDNAKNTVYLQMNSLKPEDTAVYYCAARSSSRTQATTRYGYWGQGTQVTVSS | high polyreactivity
QVQLVESGGGLVEAGGSLRLSCAASGSTFGSNAMGWYRQGPGKARELVARISKRGGSTYYADSVKGRFTISRDKAKNTVSIQINSLKPDDTAVYYCNVRSWWGYTGPYDYWRQGTQVTVSS | high polyreactivity
QVQLVESGGGLVQAGGSLRLSCAASGRIFWPYAMGWYRQAPGKERELVAAISWGDGTTYYADSVKGRFTISRDNAKNTVYLQMNSLKPEDTAVYYCAVELWPDYVTDIRYYDGFDYWGQGTQVTVSS | low polyreactivity
QVQLVESGGGLVQAGGSLRLSCAASGFTFYDYAMGWYRQAPGKERELVAAISWDGDRTYYADSVNGRFTISRDNAKNTVYLQMNSLKPEDTAVYYCNAEYSSFSDVQKDSDMDYWGQGTQVTVSS | low polyreactivity
QVQLVESGGGLVQAGGSLRLSCAASGRIFQPNAMGWYRQAPGKERELVAAISSSGGRTYYADSVKGRFTISRDNAKNTVYLQMNSLKPEDSAVYYCNAGGYRYRSYDYWGQGTQVTVSS | high polyreactivity
QVQLVESGGGLVQAGGSLRLSCAASGRIFYYNVMGWYRQAHGKERELVASISYSSTRTYYADSVKGRFTISRDNAKNTVYLQMNRLKQEDTAVYYCAVDTYAYRGVSYWSERTYYYWGQGTQVNVSS | low polyreactivity
QVQLVESGGGLVQAGGSLRLSCAASGSTFSSYAMGWYRQAPGKERELVAGISWGGSSTDYADSVKGRFTISRDNAKNTVYLQMNSLKPEDTAVYYCARRYRRGWSTLDYWGQGTQVTVSS | low polyreactivity
QVQFVESGGGLVQAGGSLRLSCAASGSTFQGNAMGWYRQAPGKERELVAAISRSGGRTYYADSVKGRFTISRDNAKNTVYLQMNSLKPEDTAVYYCAADAYTGDIPYWWPWNNEYDYWGQGTQVTVSS | low polyreactivity
QVQLVESGGGLVQAGGSLRLSCAASGSTFYIYTMGWYRQAPGKERELVATISWDGGNTYYADSVKGRFTISRDNAKNTVYLQMNSLKPEDTAVYYCARDSSIWSHGSWYDYWGQGTQVTVSS | low polyreactivity
QVQLVESGGGLVQAGGSLRLSCAASGFIFNLYAMGWYRQAPGKEREFVAGISYSGNTYYADSVKGRFTISRDNAKNTVYLQMNSLKPEDTAVYYCAARRGYNDGYWGQGTKVTVSS | high polyreactivity

Sequence | polyreactivity (PSR sort gate)
QVQLVESVGVLVQAGGSLRLSCAASVSIFDYNAMGWYRQAPGKERELVADITISDDSTYYADSVKGRFTISRDNAKNTVYLQMNSLKPEDTAVYYCAADIKYYWYYYYWAYAYDYWGQGTQVTVSS | high polyreactivity
QVQLVQSGGGLVQAGGSLRLSCAASGSTFRRKVMGWYRQAPGKETELVAAISWSGTSTNYADSEKGRFTISRDNAKNTVYLQMNSVKPEDTAVYYCATQSLYYRWGLDYWGQGTEVTVSS | high polyreactivity
QVQLVESGGGLVQAGGSLRLSCAASGFTIYWYAMGWYRQAPGKERELVAAITRSGSSTYYADSVKGRFTISRDNAKNTVYVQMNSLKPEDTAVYYSAALPYTPYYDAYDYWGQGTQVTVSS | high polyreactivity
QVQLVESGGGLVQAGGSLRLSCAASGRIFTSYVMGWYRQAPGKERELVAAITRTGGSTYYADSVKGRFTISRDNAKNTVYLQMNSLKPEDTAVYYCNALTRRQKGGEGGGYWGQGTQVTVSS | high polyreactivity
QVQLVESVVGLVQAGGSLRLSCAASGITFNRNAMGWYIEAPGKERELVAAISSGGSTNYADSVKGRFTISRDNAKNTVYLQMNSLKPEDTAVYYCARAQYWYGKGYYYWGQGTQVTVSS | high polyreactivity
QVQLVESGGGLVQAGGSLRLSCAASGGTFRGYTMGWYRPAPGKERELVAAITRIGGSTYYADSVKGRFTISRDNAKYTVYLQMNSLKPEDTAVYYCAARGGVPYSNAYDFWGQGTQVTVSS | low polyreactivity
QVQLVESGGGLVQAGGSLRLSCAASGNTLTYNVMGWYRQAPGKDWDLVAAISGRGGRTYYADSVKGRFTISRDNAKNTVYLQMNSLKPEDTAVYYCAATSRNGESGGFYYWGQGTQVTVSS | high polyreactivity
QVQLVESGGGLVQAGGSLRLSCAASGSILYLNARGWYRQAPGKERELVAGISRRGGRTTYADSVKGRFTISRDNAKNTVYLQMNSLKPEDTAVSYCAVSTAYGYGYWGQGTQVTVSS | high polyreactivity
QVQLQESGGGLVQAGGSLRLSCAASGTIFRFRYMGWHRQAPGKERELVAGINGGTTTYYADSVIGRFTISRDNAKKSVYLQMNSLKPDDTAVYNCAAGASRLTYYDYWGQGTQVTVSS | low polyreactivity
QVQLVESGGGLVRAGGSLRLSWAASGFTFTSYAMGWYRQAPGKERELVAAITVTGGRTYYADSVKGRFTISRDNAKNTVYLQMNSLKPEDTAVYYCATVFSLSSPYWKHYYWGQGTQVTVSS | high polyreactivity
QVQLVESGGGLVQAGGSLRLSCAASGRTFRPYAMGWYRPAPGKERELVAAISSRGSSTYYADSVKGRFTISRDNAKNTVYLQMNSLKPEDTAVYYCAARSYWGGLRYDYWGQGTQVTVSS | high polyreactivity
QVQLVESGGGLVQAGGSLRLSCAASGRTFGKNAMGWYRPAPGKERELVAAIRYRTGSTYYADSVKGRFTISRDNAKNTVYLQMNSLKPEDTAVYYCAKVGSSPLYWGQGTHVTVSS | high polyreactivity
QVQLVESGGGLVQAGGSLRLSCAASGIIFQRNDMGWYRQAPGKEREFVAAITYIGGSTYYADSVKGRFTISRDNAKNTVYLQMNSLKPEDTAVYWGQGTQVTVSS | low polyreactivity
QVQLVESGGGLVQAGGSLRLSCAASGRTFYNNAMGWYRPAPGKERELVAAISQRTGRTYYADSVKGRFTISRDNAKNTVYLQMNSLKPEDTAVYYCNKVAYYSRRMDYWGQGTQVTVSS | high polyreactivity
QVQLVESGGGLVQAGGSLRLSCAASGRTFRLYAMGWYRQAPGKERELVAAISYSDGRTYYADSVKGRFTISRDNAKNTVYLQMNSLKPEDTAVYYCAAETLYVSPYFYVVQYDYWGQGTQVTVSS | high polyreactivity
QVQLVESGGGLVQAGGSLRLSCAASGSIFVLNAMGWYRQAPGKERELVAAITGTGDRTYYADSVKGRFTISRDNAKNTVYLQMNSLKPEDTAVYYCAATVGDAYYEYDYWGQGTQVTVSS | low polyreactivity
QDQLVESGGGLVQAGGSLSLSCAASGQTFYQYAMGWYRQAPGKERELVAAISKSAGSTYYADSVKGRFTISRDNAKNTVYLQMNSLKPEDTAVYYCVARVLRLRYDYWGQGTQVSVSS | high polyreactivity
QVQLVESGGGLVQAGGRLRLSCAASGFIFWTYAMGWYRQAPGKERELVARISWSGGSTYYADSVKGRFTISRDTAKNTVYLQMNSLKPEDTAVYYCARLATLYESIEYDYWGQGTQVTVSS | low polyreactivity
QVQLVESGGGLVQAGGSLRLSCAASGNIFFVYDMGWYRQSPGKERELVAAISWSGGSTYADSVKGRFTISRDNAKNTVYLQMNSLKPEDTAVYYCNAQGYRYRIGYDYWGQGTQVTVSS | low polyreactivity
QVQLVESGGGLVQAGGSLRLSCAASGRIFQGYAMGWYRQAPGKEREFVAVISTSGGRTSYADSVKGRFTISRDNAKNTVYLQMNSLKPEDTAVYYCNALYGRYGWSKNYYWGQGTQVTVSS | high polyreactivity
QVQLVESGGGLVQAGGSLRLSCAASGSNFVTYAMGWYRQAPGKERELVAAISYSGGSTYADSVKGRFTISRDNAKNTVYLQMNILKPEDTAVYYCNTDTSVDVRFDYWGQGTQVTVSS | low polyreactivity
